From patent US20150353950A1, “TRANSGENIC PLANTS” (Durham University, priority 2012, published 2015)
Values belong to the molecule of their own block, whether it stands above or below them.

Columns and labels:
SUMO1 = molecular target: T1, SUMO1 (Arabidopsis thaliana, UniProt P55852); experiment: Far-western / peptide array of GID1 SIM peptides probed with SUMO1; type: binding; details: for SIM-SUMO1 interaction (far-western): 1 μg peptide spotted on PVDF, probed with His:proAtSUMO1 (10 μg/ml); for interaction with SUMO1 (peptide array): peptide arrays of GID1 SIMs
T1 construct: His (N); made in house; host or cells: E. coli
T1 sequence (P55852 whole entry): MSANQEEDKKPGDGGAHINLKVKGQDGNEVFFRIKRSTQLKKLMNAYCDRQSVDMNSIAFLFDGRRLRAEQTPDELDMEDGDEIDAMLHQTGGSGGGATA
Description: FIGS. 9A-C. GID1a contains a functional SIM motif in the N-terminal region. a, amino acid positions of two putative SIMs (SUMO interacting motifs) in the GID1a N-terminal domain (SEQ ID NO: 59). Lower panel, far-western assays of two peptides corresponding to SIM A (SEQ ID NO: 60) and SIM B (SEQ ID NO: 58). […] Number indicates molecular mass (kDa). Non-transgenic, wild-type extracts (wt) were used as a negative control. c, mean root growth of 10 days old seedlings in the presence of 100 mM NaCl expressed as a inhibition (%) relatively to the untreated controls. Error bar=s.e.m. n=16.
Peptides corresponding to the putative SIMs in GID1 were purchased from Cambridge Research Biochemicals. 1 μg of each peptide was spotted on a PVDF membrane. Membranes were washed in 100% Ethanol, equilibrated in TBST (25 mM Tris HCl, pH 8.0, 150 mM NaCl, 0.05% Tween 20) and blocked in TBST-Milk 5%. Peptides were probed overnight at 4° C. with recombinant His:proAtSUMO1 (10 μg/ml), washed and subsequently probed with SUMO1 antibodies for standard chemoluminescence-based detection.

[1] = molecular target: T2, SUMOylated GFP:RGA (plant-derived)
T2 chain 1: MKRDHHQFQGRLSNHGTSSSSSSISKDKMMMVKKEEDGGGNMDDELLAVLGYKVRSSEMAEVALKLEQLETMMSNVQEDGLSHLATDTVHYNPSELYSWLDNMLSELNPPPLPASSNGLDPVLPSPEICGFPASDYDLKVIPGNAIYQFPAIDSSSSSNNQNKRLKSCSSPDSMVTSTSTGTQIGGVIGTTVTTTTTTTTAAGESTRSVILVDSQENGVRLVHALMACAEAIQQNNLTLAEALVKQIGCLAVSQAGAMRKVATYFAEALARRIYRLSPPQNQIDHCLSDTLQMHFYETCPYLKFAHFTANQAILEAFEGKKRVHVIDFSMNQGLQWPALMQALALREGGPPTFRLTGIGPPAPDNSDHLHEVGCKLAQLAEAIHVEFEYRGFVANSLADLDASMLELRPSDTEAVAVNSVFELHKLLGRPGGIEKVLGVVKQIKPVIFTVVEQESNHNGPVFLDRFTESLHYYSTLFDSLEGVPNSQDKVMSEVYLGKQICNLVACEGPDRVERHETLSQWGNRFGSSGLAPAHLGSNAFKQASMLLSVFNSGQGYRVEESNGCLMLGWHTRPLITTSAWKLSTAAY
T2 chain 2: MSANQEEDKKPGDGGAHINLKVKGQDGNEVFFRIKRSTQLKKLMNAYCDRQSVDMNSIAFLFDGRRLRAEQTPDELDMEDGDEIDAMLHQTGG

GID1a [2] = molecular target: T3, GID1a (Arabidopsis thaliana, UniProt Q9MAA7); experiment: GST pull down assay with GST:GID1a; type: binding; details: presence or absence of GA3 (10 μM)
T3 construct: The GID1a ORF was amplified by PCR from whole cDNAs from seedlings with oligos LC73 and LC74; made in house; host or cells: E. coli
T3 sequence (Q9MAA7 1-345): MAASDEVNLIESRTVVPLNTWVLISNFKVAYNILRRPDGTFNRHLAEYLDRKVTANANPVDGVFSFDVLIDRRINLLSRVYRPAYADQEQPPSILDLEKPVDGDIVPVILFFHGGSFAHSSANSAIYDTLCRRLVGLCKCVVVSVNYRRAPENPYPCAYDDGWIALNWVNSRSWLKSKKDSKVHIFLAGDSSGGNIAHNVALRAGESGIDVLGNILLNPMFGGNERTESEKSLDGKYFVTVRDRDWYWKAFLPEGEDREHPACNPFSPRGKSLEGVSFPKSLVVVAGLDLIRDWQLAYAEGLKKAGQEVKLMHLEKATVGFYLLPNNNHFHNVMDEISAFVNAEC
Description: FIGS. 4A-F. SUMOylated DELLA binds GID1 independently from GA. a, crossspecies alignment of SIM B in the GID1 protein amino terminal extension (grey). Alignment discloses SEQ ID NOS 50-55, respectively, in order of appearance. b, GST pull down assay between His:AtSUMO1 and GST:GID1a or GST in the presence (+) or absence (−) of GA3 (10 μM). Asterisk indicates a cross-reacting band. c, GST pull down assay between plant-derived GFP:RGA proteins with recombinant GST:GID1a or GST. d, mean germination rates (percentage of visible green cotyledons) of wild type (wt), ots1 ots2 double mutants and transgenic lines (T4). n=40-80 for each treatment/genotype combination. Error bar=s.d. of three biological replicates. e, images of NaCl-grown seedlings. Bar=1 cm f, model for the SUMOylation-dependent DELLA accumulation. For recombinant proteins, affinity purified GST:GID1a (0.1 μg) or GST were mixed with His:AtSUMO1 (0.1 μg) and incubated in 1× reaction buffer (Gamborg's B5—minimal organics, 50 mM NaCl, 0.05% Igepal CA-630, 1 mM DTT, 50 mM Tris HCl, pH 7.5). GA3 was added at a final concentration of 10 μM. Proteins were pulled-down using the μMACS GST Isolation Kit, according to the manufacturers' instruction (Miltenyi biotech). […]

GID1a [3] = molecular target: T3, GID1a; experiment: SPR (Biacore 2000) on immobilised GID1a; type: binding
Description: FIG. 17. SUMO inhibits GID1a binding to RGA-DELLA protein Interaction between RGA alone with GID1a (red) and, RGA and SUMO1 (AtS1, blue) with GID1a both in the presence of GA3. […] Method: SPR was carried out on a Biacore 2000 instrument at 25° C. Purified GID1a was amine-coupled to a CM5 sensor chip (GE Healthcare). Flow cell 1 was blocked using ethanolamine and used as reference. Approx 500 RU of GID1a was bound to flow cells 2 and 3. All binding assays were carried out in HBS-EP buffer (10 mM HEPES pH 7.5, 150 mM NaCl, 1 mM EDTA, 1 mM DTT, 0.005% P20) at a flow rate of 20 μl/min using 180 second injections followed by 180 s of dissociation in HBS-EP. Each condition was run in duplicate using proteins at 100 μg/ml in HBS-EP (containing 100 μM GA3 as appropriate). Regeneration used 10 mM glycine pH 1.5 at 30 μl/min for 30 s.
FIGS. 18A and B. GID1a—SUMO Interaction Data Sensorgram of interaction between SUMO1 (AtS1) with GID1a.

SIM-SUMO1 interaction (far-western) (SUMO1): Binding between the SIM and SUMO1 occurs
interaction with SUMO1 (peptide array) (SUMO1): shown to be a genuine SIM
Molecule: SIM B: peptide corresponding to putative SUMO interacting motif B in the GID1a N-terminal domain (SEQ ID NO: 58) (VVPLNTWVLISN; listed as Arabidopsis thaliana)

SIM-SUMO1 interaction (far-western) (SUMO1): strongly reduced SIM-SUMO1 interaction
interaction with SUMO1 (peptide array) (SUMO1): reduction in interaction
Molecule: SIM B V22A: SIM B peptide with substitution of a hydrophobic amino acid for an alanine residue (VVPLNTWALISN)

B1: His:OTS1 (protein)
chain: MTKRKKEVIDVDCSEKKDFVIDWSSAMDKEDEVPELEIVNTTKPTPPPPPTFFSDDQTDSPKLLTDRDLDEQLERKKAILTLGPGLPDKGEKIRLKIADLEEEKQRRVLEGSKMEVDRSSKVVSSTSSGSDVLPQGNAVSKDTSRGNADSKDTSRQGNADSKEVSRSTFSAVFSKPKTDSQSKKAFGKELEDLGCERRKHKAGRKPVTRLSNGWRLLPDVGKAEHSAKQFDSGLKESKGNKKSKEPYGKKRPMESSTYSLIDDDDDDDDDDDNDTSGHETPREWSWEKSPSQSSRRRKKSEDTVINVDEEEAQPSTVAEQAAELPEGLQEDICYPTRDDPHFVQVCLKDLECLAPREYLTSPVMNFYMRFLQQQISSSNQISADCHFFNTYFYKKLSDAVTYKGNDKDAFFVRFRRWWKGIDLFRKAYIFIPIHEDLHWSLVIVCIPDKKDESGLTILHLDSLGLHSRKSIVENVKRFLKDEWNYLNQDDYSLDLPISEKVWKNLPRRISEAVVQVPQQKNDFDCGPFVLFFIKRFIEEAPQRLKRKDLGMFDKKWFRPDEASALRIKIRNTLIELFRVSDQTE
in vitro deSUMOylation of immunoprecipitated GFP:RGA (anti-SUMO1 immunoblot) [1]: dramatic reduction of the higher molecular weight, anti-SUMO1 cross-reacting bands only in the tubes containing wild-type OTS1

B2: AtS1: Arabidopsis small ubiquitin-like modifier SUMO1, recombinant (protein)
chain: T2 chain 2
binding to GST:GID1a (GST pull down) (GID1a [2]): can bind to SUMO1 from Arabidopsis in a GA-independent manner
binding of AtS1 to GID1a (SPR sensorgram) (GID1a [3]; 25° C., HBS-EP buffer, proteins at 100 μg/ml): binding and saturation of AtS1 to GID1a followed by disassociation
effect on RGA binding to GID1a (SPR combined response) (GID1a [3]; RGA and AtS1 together, in the presence of GA3 (100 μM)): combined response (blue) is reduced in the presence of AtS1

B3: SUMOylated RGA: plant-derived SUMOylated form of GFP:RGA DELLA protein (protein)
chain 1: T2 chain 1
chain 2: T2 chain 2
modifications: left off: large carriers
notes: plant-derived SUMOylated form of GFP:RGA DELLA protein
binding to GST:GID1a (GST pull down) (GID1a [2]): could bind to GST:GID1a even in the absence of GA
